Experimental data taken from the supplement of paper PMC10567573.

Assay: protein stability index of a GFP-peptide fusion (GPS, HEK-293T) (PSI 1-6); higher = more stable
Conditions: c terminus: native
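Also: lentivirally expressed fusion library, cells FACS-sorted into six equal-sized GFP/DsRed ratio bins, PSI computed from sequencing read fractions per bin weighted by bin number.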

LPALFTDLYSQEITAEEAREALPG [SNF8 addG]
protein stability index (parent: NP_009172.2): 2.8

CQPISFSGFGAEDDDLGGLGLGPG [POLD2 addG]
protein stability index (parent: NP_006221.1): 2.37

DGWIRVSSDNVADLHEKYSGSTPG [PSMB5 addG]
protein stability index (parent: NP_002788.1): 3

EQRNSRWNTVLRAVKAKTHHLEPG [TRPA1 addG]
protein stability index (parent: NP_015628.1): 3.92
